Reference: the Immune Epitope Database (IEDB)
pIC50, pKd: −log10 of the molar value.

How the values were obtained:
HLA-A*01:01 [1] = experiment: IEDB peptide-MHC binding, purified MHC/direct/fluorescence; filed as Kd, often an IC50 or EC50 that approximates it; ≥ and ≤ were set here for values at or beyond the usual limits of such assays
HLA-A*02:01 [2] = experiment: as above
HLA-A*03:01 [3] = experiment: as above
HLA-A*11:01 [4] = experiment: as above
HLA-A*24:03 = experiment: as above
HLA-A*26:01 = experiment: as above
HLA-A*31:01 = experiment: as above
HLA-A*69:01 = experiment: as above
HLA-B*15:01 [5] = experiment: as above
HLA-B*27:05 = experiment: as above
HLA-B*35:01 = experiment: as above
HLA-B*40:01 = experiment: as above
HLA-B*44:02 = experiment: as above
HLA-A*01:01 [6] = experiment: IEDB peptide-MHC binding, purified MHC/competitive/fluorescence; ≥ and ≤ were set here for values at or beyond the usual limits of such assays
HLA-A*02:01 [7] = experiment: as above; conditions: source organism: Vaccinia virus
HLA-A*03:01 [8] = experiment: as above
HLA-A*11:01 [9] = experiment: as above
HLA-A*24:02 = experiment: as above; conditions: source organism: Vaccinia virus
HLA-B*15:01 [10] = experiment: as above
HLA-A*30:01 = experiment: IEDB peptide-MHC binding, purified MHC/direct/fluorescence; filed as Kd, often an IC50 or EC50 that approximates it; ≥ and ≤ were set here for values at or beyond the usual limits of such assays; conditions: source organism: Coxiella burnetii
HLA-B*07:02 = experiment: as above
HLA-B*08:01 = experiment: as above
HLA-B*58:01 = experiment: as above
HLA-B*46:01 = experiment: as above; conditions: source organism: Burkholderia mallei
HLA-B*48:01 = experiment: as above; conditions: source organism: Burkholderia mallei
HLA-C*12:03 = experiment: as above
HLA-C*05:01 = experiment: as above; conditions: source organism: Homo sapiens
HLA-B*08:02 = experiment: as above
HLA-A*01:01 [11] = experiment: IEDB peptide-MHC binding, purified MHC/competitive/fluorescence; filed as Kd, often an IC50 or EC50 that approximates it; ≥ and ≤ were set here for values at or beyond the usual limits of such assays; conditions: source organism: Human betaherpesvirus 7
HLA-A*29:02 = experiment: as above; conditions: source organism: Human betaherpesvirus 7
[12] = source organism: Vibrio vulnificus
[13] = source organism: Vaccinia virus
[14] = source organism: Coxiella burnetii
[15] = source organism: Burkholderia mallei ATCC 23344
[16] = source organism: Escherichia coli O6

## NGYRWQHQI
HLA-A*01:01 [1]; [12]
  pKd: ≤ 4.70
HLA-A*02:01 [2]; [12]
  pKd: 5.87
HLA-A*03:01 [3]; [12]
  pKd: ≤ 4.70
HLA-A*11:01 [4]; [12]
  pKd: ≤ 4.70
HLA-A*24:03; [12]
  pKd: 5.12
HLA-A*26:01; [12]
  pKd: ≤ 4.70
HLA-A*31:01; [12]
  pKd: ≤ 4.70
HLA-A*69:01; [12]
  pKd: 7.76
HLA-B*15:01 [5]; [12]
  pKd: ≤ 4.70
HLA-B*27:05; [12]
  pKd: ≤ 4.70
HLA-B*35:01; [12]
  pKd: 6.07
HLA-B*40:01; [12]
  pKd: ≤ 4.70
HLA-B*44:02; [12]
  pKd: ≤ 4.70

## AMEKSSKYY
HLA-A*01:01 [6]; [13]
  pIC50: 4.55
HLA-A*02:01 [7]
  pIC50: ≤ 2.93
HLA-A*03:01 [8]; [13]
  pIC50: ≤ 3.85
HLA-A*11:01 [9]; [13]
  pIC50: ≤ 3.71
HLA-A*24:02
  pIC50: ≤ 3.02
HLA-B*15:01 [10]; [13]
  pIC50: 4.96

## VPPESVEAA
HLA-A*01:01 [1]; [14]
  pKd: ≤ 4.70
HLA-A*02:01 [2]; [14]
  pKd: ≤ 4.70
HLA-A*03:01 [3]; [14]
  pKd: ≤ 4.70
HLA-A*11:01 [4]; [14]
  pKd: ≤ 4.70
HLA-A*26:01; [14]
  pKd: ≤ 4.70
HLA-A*30:01
  pKd: ≤ 4.70
HLA-A*31:01; [14]
  pKd: ≤ 4.70
HLA-A*69:01; [14]
  pKd: ≤ 4.70
HLA-B*07:02; [14]
  pKd: 4.91
HLA-B*08:01; [14]
  pKd: ≤ 4.70
HLA-B*15:01 [5]; [14]
  pKd: ≤ 4.70
HLA-B*27:05; [14]
  pKd: ≤ 4.70
HLA-B*35:01; [14]
  pKd: 5.81
HLA-B*40:01; [14]
  pKd: ≤ 4.70
HLA-B*44:02; [14]
  pKd: ≤ 4.70
HLA-B*58:01; [14]
  pKd: ≤ 4.70

## YMKAPSGAL
HLA-B*07:02; [15]
  pKd: 8.05
HLA-B*15:01 [5]; source organism: Burkholderia mallei
  pKd: 7.41
HLA-B*35:01; [15]
  pKd: 5.50
HLA-B*46:01
  pKd: 5.71
HLA-B*48:01
  pKd: 7.33
HLA-C*12:03; source organism: Burkholderia mallei SAVP1
  pKd: 8.30

## TPVWHVTSA
HLA-A*01:01 [1]; [16]
  pKd: ≤ 4.70
HLA-A*02:01 [2]; [16]
  pKd: ≤ 4.70
HLA-A*03:01 [3]; [16]
  pKd: ≤ 4.70
HLA-A*11:01 [4]; [16]
  pKd: ≤ 4.70
HLA-A*24:03; [16]
  pKd: ≤ 4.70
HLA-A*26:01; [16]
  pKd: ≤ 4.70
HLA-A*31:01; [16]
  pKd: ≤ 4.70
HLA-A*69:01; [16]
  pKd: ≤ 4.70
HLA-B*07:02; [16]
  pKd: 7.74
HLA-B*08:01; [16]
  pKd: ≤ 4.70
HLA-B*15:01 [5]; [16]
  pKd: ≤ 4.70
HLA-B*27:05; [16]
  pKd: ≤ 4.70
HLA-B*35:01; [16]
  pKd: 7.68
HLA-B*40:01; [16]
  pKd: ≤ 4.70
HLA-B*58:01; [16]
  pKd: ≤ 4.70

## RVNPGTYVY
HLA-A*01:01 [6]; source organism: Variola virus
  pIC50: 4.99
HLA-A*03:01 [8]; source organism: Variola virus
  pIC50: 5.36
HLA-A*11:01 [9]; source organism: Variola virus
  pIC50: 6.15
HLA-B*15:01 [10]; source organism: Variola virus
  pIC50: 5.04

## LVMAPRTVL
HLA-A*02:01 [2]; source organism: Homo sapiens
  pKd: ≤ 4.40
HLA-A*11:01 [4]; source organism: Homo sapiens
  pKd: 4.99
HLA-A*69:01; source organism: Homo sapiens
  pKd: 5.44
HLA-B*07:02; source organism: Homo sapiens
  pKd: 6.75
HLA-B*15:01 [5]; source organism: Homo sapiens
  pKd: 6.14
HLA-C*05:01
  pKd: 5.69
HLA-C*12:03; source organism: Homo sapiens
  pKd: 6.99

## FLRRRRAAL
HLA-B*08:02; [15]
  pKd: 7.15

## LSMFVTNKK
HLA-A*01:01 [11]
  pKd: 5.52
HLA-A*29:02
  pKd: 7.20

## VINWKGKEL
HLA-B*08:02; source organism: dengue virus type 3
  pKd: ≤ 4.70
